Assay results: patent publication US9486502B2, “Methods of administering interferon gamma to absorb fluid from the subretinal space” (The United States of America, as represented by the …, priority 2008, dated 2016)

Legend:
hfRPE monolayers = assay: fluid transport (JV, TEP, RT) across hfRPE monolayers in modified Üssing chamber; assay type: cell-based, human
Text: Confluent monolayers of hfRPE cultured on transwells were mounted in a modified Üssing chamber and transepithelial water flow measurements (JV) were made with a capacitance probe technique as described previously in Maminishkis, A., et al., Invest Ophthalmol Vis Sci, 2006, 47, 3612-3624; Shi, G., et al., Invest Ophthalmol Vis Sci, 2008, 49, 4620-4630; Edelman, J. L., et al., Invest Ophthalmol Vis Sci, 1991, 32, 3033-3040; Jiang, C., et al., Science, 1993, 262, 424-427; and Maminishkis, A., et al., Invest Ophthalmol Vis Sci, 2002, 43, 3555-3566, each incorporated herein by reference in its entirety.
Tissue viability was ascertained by recording transepithelial potential (TEP) and total tissue resistance (RT). It should be noted that the solution composition changes in this chamber were relatively slow (≈1-2 chamber volumes per minute) and the data sampling rate was once per minute, more than two orders of magnitude slower than the sampling rate in the electrophysiology chamber (see below). Therefore it was not possible to record fast changes, in seconds or minutes, in JV, TEP, or RT. After addition of IFNγ to the apical or basal baths, steady-state JV, TEP, and RT were recorded for 20-30 minutes. In control experiments, successive additions of IFNγ were made to test for the repeatability and reversibility of responses. To block IFNγ effects, RPE cells were incubated for 30-60 minutes with a blocking antibody against IFNγ R1, JAK inhibitor I, PKA inhibitors (H-89, EMD Biosciences; RP-8-Br-cAMPS, Sigma-Aldrich), nitric oxide synthase inhibitor (aminoguanidine hydrochloride, Sigma-Aldrich), P38 MAPK inhibitors (SB203580 or SB20290), or CHX. Other components of this signaling pathway were studied using P38 MAPK inhibitors (SB203580 and SB202190). Relatively specific Cl channel inhibitors, CFTRinh-172 or DIDS (EMD Biosciences, La Jolla, Calif.), were used to block cAMP or Ca^2+-activated Cl channels; experiments with CFTRinh-172 were performed as described in Muanprasat, C., et al., J Gen Physiol, 2004, 124, 125-137, incorporated herein by reference in its entirety. In chronic experiments, paired hfRPE tissues with matched RT values were incubated for 4-24 hours with IFNγ or CHX. The subsequent changes in JV, RT, and TEP were measured in Ringer's solution or serum free cell culture media as previously described in Shi, G., et al., Invest Ophthalmol Vis Sci, 2008 and Maminishkis, A., et al., Invest Ophthalmol Vis Sci, 2006, 47, 3612-3624, each incorporated herein by reference in its entirety. Intracellular levels of NO were elevated with 1-Hydroxy-2-oxo-3-(3-aminopropyl)-3-isopropyl-1-triazene (NOC-5, Enzo Life Sciences, Plymouth, Pa.). 8-Br-cGMP was purchased from Sigma-Aldrich.

[1] = Phase I study of topical interferon gamma-1b in CME secondary to uveitis (OCT macular thickness); assay type: in vivo, human; conditions: based on therapeutic treatment of topical IFNα
Text: To test whether cystoid macular edema (CME), secondary to uveitis, is caused by the disequilibrium of the Jak/Stat and mTor signal transduction pathways in the retinal pigment epithelium (RPE), interferon gamma-1β topically applied in human patients. Five participants with CME secondary to uveitis receive a topical ocular instillation of interferon gamma-1b in a Phase I, non-randomized, prospective, uncontrolled, dose-escalation, single-center study. The study involves a one-time instillation or series of instillations of interferon gamma-1b on the cornea and measurement of a response with optical coherence tomography (OCT) over a three hour period.
A 25% decrease in macular thickness is observed at a post-instillation as compared to baseline. In the study, the first two participants receive one instillation (each instillation contains […] in 0.05 mL solution) on the cornea at time zero, the next two participants receive two instillations, 10 minutes apart, for a total dosage of 20 μg, and the final participant receives three instillations, 10 minutes apart, for a total of 30 μg. OCT will be obtained at −60 minutes, −30 minutes and just before the instillation(s). […]
Participants with CME secondary to uveitis are treated with ocular instillation(s) of interferon gamma-1b. […] The effect on the retinal thickness is measured using OCT measurements as indicated below. […]

B1: IFNγ: pleiotropic cytokine produced by T- and NK-cells; obtained from Peprotech (protein, UniProt P01579 24-161, looked up)
Interferon gamma: QDPYVKEAENLKKYFNAGHSDVADNGTLFLGILKNWKEESDRKIMQSQIVSFYFKLFKNFKDDQSIQKSVETIKEDMNVKFFNSNKKKRDDFEKLTNYSVTDLNVQRKAIHELIQVMAELSPAAKTGKRKRSQMLFRG
mean JV after IFNγ (hfRPE monolayers; 10 experiments, from 12.9±1.6, mean±s.e.m.): 20.5±3.1 μl·cm^−2·hr^−1 | TEP after 24 hour IFNγ (hfRPE monolayers; IFNγ 5 ng/ml apical and basal, 24 hours): no significant TEP changes | mean JV after 24 hour IFNγ (hfRPE monolayers; IFNγ 5 ng/ml apical and basal, 24 hours, control 7.6±1.5, 5 experiments): 15.2±2.0 μl·cm^−2·hr^−1 | cell viability as measured by TEP and RT (hfRPE monolayers; IFNγ 5 ng/ml basal bath): no apparent changes | increase in JV (hfRPE monolayers; IFNγ 5 ng/ml in the basal bath, FIG. 14A): ~8.6 μl·cm^−2·hr^−1 | RT after 24 hour IFNγ (hfRPE monolayers; IFNγ 5 ng/ml, 24 hours, from 592±80, n=5): 356±139 Ω·cm^2 | effect on JV (hfRPE monolayers; IFNγ added to the apical bath): no significant effect | IFNγ-induced resistance change (hfRPE monolayers; at 24 hours): ≈ 2 fold | mean IFNγ-induced resistance change (hfRPE monolayers; at 24 hours): ≈ 240 Ω·cm^2 | JV after subsequent addition of IFNγ (hfRPE monolayers; continued presence of Rp-8-Br-cAMPS 2 μM, six experiments): 8.4±1.7 μl·cm^−2·hr^−1 | JV after subsequent addition of IFNγ (hfRPE monolayers; in presence of H-89, four experiments): 14.7±4.7 μl·cm^−2·hr^−1 | mean JV after IFNγ (hfRPE monolayers; nine experiments (P38 series), from 7.5 ±1.9): 16.5±2.2 μl·cm^−2·hr^−1 | mean JV after IFNγ (hfRPE monolayers; three experiments (H-89 series), from 8.4±1.6): 20.1±0.2 μl·cm^−2·hr^−1 | tolerability of topically applied IFNγ [1]: well-tolerated
